Entries after “also recorded” stand apart in the source; their conditions may differ.

The record followed here is US20250326862A1, “Antibody or Fragment Thereof Binding Specifically to Mertk, and Anti-Tumor Agent” (Chiome Bioscience Inc., priority 2021, published 2025).

In data set [1] the target is T1, human MerTK (Homo sapiens, UniProt Q12866).
T1 sequence (Q12866 21-999): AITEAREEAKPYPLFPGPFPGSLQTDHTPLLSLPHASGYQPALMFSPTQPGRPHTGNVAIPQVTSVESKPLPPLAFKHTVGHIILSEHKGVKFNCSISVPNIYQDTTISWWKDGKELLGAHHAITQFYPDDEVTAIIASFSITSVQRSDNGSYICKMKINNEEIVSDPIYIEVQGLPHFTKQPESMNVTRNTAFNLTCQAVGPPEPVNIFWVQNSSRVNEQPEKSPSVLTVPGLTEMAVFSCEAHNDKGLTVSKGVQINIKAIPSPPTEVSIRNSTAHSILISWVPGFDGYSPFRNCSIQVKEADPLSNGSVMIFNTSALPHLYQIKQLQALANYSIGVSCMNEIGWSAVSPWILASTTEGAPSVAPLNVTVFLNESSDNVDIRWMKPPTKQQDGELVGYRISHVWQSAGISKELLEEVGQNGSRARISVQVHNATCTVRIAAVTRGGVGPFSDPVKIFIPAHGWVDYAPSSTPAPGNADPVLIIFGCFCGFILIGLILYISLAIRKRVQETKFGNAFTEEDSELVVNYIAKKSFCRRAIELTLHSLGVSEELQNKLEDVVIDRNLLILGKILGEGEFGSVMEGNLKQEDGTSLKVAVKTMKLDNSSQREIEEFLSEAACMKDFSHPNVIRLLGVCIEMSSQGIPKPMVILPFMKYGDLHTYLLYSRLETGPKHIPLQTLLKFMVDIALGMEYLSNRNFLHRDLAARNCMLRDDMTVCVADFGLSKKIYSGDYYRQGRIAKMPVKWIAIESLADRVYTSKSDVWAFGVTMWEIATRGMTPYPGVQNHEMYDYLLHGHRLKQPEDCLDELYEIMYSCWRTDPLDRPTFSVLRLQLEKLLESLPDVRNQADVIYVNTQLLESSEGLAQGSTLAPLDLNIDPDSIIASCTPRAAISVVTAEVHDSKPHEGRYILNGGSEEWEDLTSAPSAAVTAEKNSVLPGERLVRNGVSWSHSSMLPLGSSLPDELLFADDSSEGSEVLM
As to the kind of experiment: Test 9: antigen binding activity of humanized antibodies by ELISA. The conditions noted are these: compared with the original human chimeric antibody (m20A77_hIgG1LALA or 24A1_hIgG1LALA, respectively); FIG. 21. The protocol: (§1) The ELISA was performed according to the procedures indicated below. First, the respective antigens were added to an ELISA plate (Nunc) at a concentration of 5 μg/ml and immobilized overnight at room temperature. After removing the immobilization solution, 1% BSA/PBS was added for blocking reaction and left to stand at room temperature for 1 hour. After the blocking, the plate was washed with 0.05% Tween 20/PBS and an antibody solution was added for primary reaction at room temperature for 1 hour. After washing, an HRP-labelled antibody (GE Healthcare) was added for secondary reaction for 1 hour. After washing, a chromogenic substrate solution of TMB (Dako) was added for chromogenic reaction for 10 minutes, 1 N sulfuric acid was added to terminate the reaction and the absorbance was measured at 450 nm.
The prepared antibodies were checked for antigen binding activity by ELISA.
On the technique in general: An ELISA detects its analyte on a solid surface through an enzyme-linked reagent.

The nature of data set [2]: Test 8: toxic dose by in vivo ocular toxicity test, TB staining. Details: species or system Balb/c mice. The following applies: 3 or 10 mg/kg intravenous twice a week, eyes removed day 30. The protocol:
The ocular toxicity test was carried out using Balb/c mice. The mice intravenously received a solvent or “m20A77_mIgG1” at a dose of 3 or 10 mg/kg at a frequency of twice a week. At day 30 after the first administration, eyes were removed, fixed with a Karnovsky's fixative and then subjected to embedding in a resin, preparation of sections and TB staining carried out by Applied Medical Research Laboratory.

The target of data set [3] is T1, human MerTK. The data set can be described thus: MerTK phosphorylation inhibition test in hMerTK-EL4 cells stimulated with human Gas6. It counts as cell-based. The conditions noted are these: hMerTK-EL4, antibody 1 hour, then 200 nM human Gas6 for 10 minutes; phospho-Mer ELISA; FIG. 1. Details: expressed in transfected cells; host or cells: mouse lymphoma cell line EL4 (hMerTK-EL4). The procedure:
On the basis of the procedures indicated below, the clones were evaluated for MerTK phosphorylation inhibitory activity. Higher activity means higher binding ability to MerTK.
The cells (hMerTK-EL4) stably expressing human MerTK were cultured in a “DMEM high glucose medium” (Thermo Fisher Scientific Inc.) containing 10% FBS. After the cultivation, the cells were washed in PBS, suspended in a serum-free medium, plated in a 96-well plate at 1×10^6 cells/well and incubated at 37° C. for 3 hours. After the incubation, the respective clones were added, the hMerTK-EL4 was allowed to react for 1 hour, stimulated with 200 nM human Gas6 (R&D Systems) for 10 minutes and centrifuged and collected. The collected hMerTK-EL4 was lysed in a cell lysis solution, and the level of the phosphorylated MerTK protein in the lysate was determined using “Human Phospho-Mer DuoSet IC ELISA” (R&D Systems). The cell lysis solution used contained 1% “IGEPAL CA-630” (SIGMA) and 1×concentration of “Halt Protease and Phosphatase Inhibitor Single-Use Inhibitor Cocktail” (Thermo Fisher Scientific Inc.) added to MilliQ water.

The target in data set [4] is T2, binding of MerTK with Gas6 (Homo sapiens, UniProt Q12866).
T2 construct: purchased R&D Systems
T2 sequence (Q12866 26-499 limits assumed): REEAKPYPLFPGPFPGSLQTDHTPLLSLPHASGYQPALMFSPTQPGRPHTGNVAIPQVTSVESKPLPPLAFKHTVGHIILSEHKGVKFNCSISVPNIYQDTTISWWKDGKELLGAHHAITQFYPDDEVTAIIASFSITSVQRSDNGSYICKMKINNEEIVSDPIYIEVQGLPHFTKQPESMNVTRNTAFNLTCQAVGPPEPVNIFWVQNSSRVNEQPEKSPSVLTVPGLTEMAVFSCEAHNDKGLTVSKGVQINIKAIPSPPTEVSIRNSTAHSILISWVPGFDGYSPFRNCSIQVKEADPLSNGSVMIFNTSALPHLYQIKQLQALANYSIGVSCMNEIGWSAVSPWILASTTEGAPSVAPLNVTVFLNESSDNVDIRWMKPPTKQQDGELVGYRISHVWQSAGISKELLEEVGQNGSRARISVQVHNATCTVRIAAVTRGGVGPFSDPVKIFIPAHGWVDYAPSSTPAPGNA
As to the kind of experiment: Test 6: ligand binding inhibition ELISA, MerTK with Gas6. The conditions noted are these: human MerTK 5 μg/ml immobilized; biotinylated Gas6 10 nM; FIGS. 13 and 15. The procedure:
(§2) “20A77” and “24A1” were evaluated for the ability to inhibit binding of MerTK with various ligands. The MerTK ligands used were human Gas6 (R&D Systems) and human TULP1 (abcam plc.) which were respectively biotinylated using “Biotin Labeling Kit-NH” (Dojindo Laboratories Co., Ltd.). […] TULP1 is a ligand correlated with ocular toxicity, and an antibody having an activity to inhibit binding of MerTK with TULP1 may have ocular toxicity. Thus, an antibody having high inhibitory activity of binding to Gas6 and low inhibitory activity of binding to TULP1 may be an efficacious anti-tumor agent having low ocular toxicity.
as §1, with “The ligand binding inhibition test” for “The ELISA”, “was carried out as” for “was performed according to the procedures”, “First, human MerTK (R&D Systems) was” for “First, the respective antigens were”, “hour. […]” for “hour. After washing, an HRP-labelled antibody (GE Healthcare) was added for secondary reaction for 1 hour.”, “for 20” for “for 10”

Data set [5] has as its target T3, binding of MerTK with TULP1 (Homo sapiens, UniProt Q12866).
T3 construct: purchased R&D Systems
T3 sequence (Q12866 26-499 limits assumed): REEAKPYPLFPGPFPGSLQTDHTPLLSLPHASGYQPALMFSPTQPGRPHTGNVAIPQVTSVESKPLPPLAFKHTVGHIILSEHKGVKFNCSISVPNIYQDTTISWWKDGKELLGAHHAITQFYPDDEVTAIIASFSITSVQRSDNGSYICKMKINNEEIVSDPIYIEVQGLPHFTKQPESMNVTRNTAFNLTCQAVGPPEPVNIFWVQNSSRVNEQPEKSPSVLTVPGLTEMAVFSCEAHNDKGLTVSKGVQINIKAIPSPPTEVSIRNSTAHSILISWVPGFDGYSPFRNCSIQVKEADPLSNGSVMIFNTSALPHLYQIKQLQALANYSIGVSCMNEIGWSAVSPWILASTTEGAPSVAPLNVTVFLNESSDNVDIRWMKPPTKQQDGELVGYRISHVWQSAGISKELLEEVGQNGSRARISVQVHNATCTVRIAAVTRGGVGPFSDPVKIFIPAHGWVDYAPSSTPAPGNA
As to the kind of experiment: Test 6: ligand binding inhibition ELISA, MerTK with TULP1. The conditions noted are these: human MerTK 5 μg/ml immobilized; biotinylated TULP1 40 nM; FIGS. 14 and 16. The procedure:
as §2
as §1, with “The ligand binding inhibition test” for “The ELISA”, “was carried out as” for “was performed according to the procedures”, “First, human MerTK (R&D Systems) was” for “First, the respective antigens were”, “hour. […]” for “hour. After washing, an HRP-labelled antibody (GE Healthcare) was added for secondary reaction for 1 hour.”, “for 20” for “for 10”

B1: hz24A1_hIgG1LALA: humanized antibody derived from 24A1 with human IgG1 constant region having LALA sequence (antibody, V domains shown)
VH: EVQLVESGGGLVQPGGSLRLSCAASGFTFNVYDMHWVRQAPGKGLEWVARIRSKSSNYATNYADSVKDRFTISRDDAKNSLYLQMNSLRAEDTAVYYCVRDGSHYYYALDYWGQGTTVTVSS
VL: DIQMTQSPSSLSASVGDRVTITCRASQDINNYLNWYQQKPGKAPKLLIYYSSRLHSGVPSRFSGSGSGTDYTLTISSLQPEDFATYYCQQGKMFPWTFGGGTKVEIK
B1: the “antigen binding activity (reactivity) in ELISA” value in the data set with human MerTK [1] is recorded as “reactivity similar to or higher than original human chimeric antibodies”.

B2: hz20A77_hIgG1LALA: humanized antibody derived from m20A77 with human IgG1 constant region having LALA sequence (antibody, V domains shown)
VH: QVQLVQSGAEVKKPGSSVKVSCKASGNTFTSYWMHWVRQAPGQGLEWIGNINPSSGGTNYNEKFKSRVTITVDKSTSTAYMELSSLRSEDTAVYYCARLNYYGFDGFAFWGQGTLVTVSS
VL: DIQMTQSPSSLSASVGDRVTITCKASQDINSYLSWFQQKPGKAPKTLIYRANRLVSGVPSRFSGSGSGTDYTLTISSLQPEDFATYYCLQYDEFPFTFGGGTKVEIK
Turning to B2, the “antigen binding activity (reactivity) in ELISA” value with human MerTK [1] was “reactivity similar to or higher than original human chimeric antibodies”.

B3: m20A77_mIgG1: mouse IgG1 antibody of m20A77 (antibody, V domains shown)
VH: QVQLQQPGTELVKPGASVKLSCRASGNTFTSYWMHWVKQRPGQGLEWIGNINPSSGGTNYNEKFKSKATLTVDKSSSTAYMQLSSLTSEDSAVYYCARLNYYGFDGFAFWGQGTLVTVSA
VL: DIKMTQSPSSMYASLGERVTITCKASQDINSYLSWFQQKPGKSPKTLIYRANRLVSGVPSRFSGSGSGQDYSLTISSLEYEDMGIYYCLQYDEFPFTFGSGTKLEIK
As to B3, in data set [2] (FIG. 19), the “TB-positive granules (retinal pigment epithelium)” value is “no increase in TB-positive granules was observed”. The “abnormal shrinkage of the outer nuclear layer” value in data set [2] (FIG. 20) is “no abnormal shrinkage of the outer nuclear layer was observed”.

B4: 24A1: anti-MerTK mouse monoclonal antibody clone; VH SEQ ID NO: 9, VL SEQ ID NO: 13 (antibody, V domains shown)
VH: EVQLVESGGGLVQPKGSLKLSCAASGFTFNVYDMHWVRQAPGEGLEWVARIRSKSSNYATNYADSVKDRFTISRDDSQSMLYLQMNNLQTEDTAIYYCVRDGSHYYYALDYWGQGTSVTVSS
VL: DIQMTQTTSSLSASLGDRVTISCRASQDINNYLNWYQQKLDGTVKLLIYYSSRLHSGVPSRFSGSGSGTDYSLTISNLEQEDIATYFCQQGKMFPWTFGGGTKLEIK
Turning to B4, the “MerTK phosphorylation inhibitory activity” value with human MerTK [3] is “inhibited binding of Gas6 with MerTK and MerTK phosphorylation in a concentration dependent manner”. Further, the “inhibition of binding of Gas6 with MerTK” value in data set [4] is “inhibited binding of Gas6 with MerTK; also recorded: strongly inhibited binding of Gas6 with MerTK”. The “inhibition of binding of TULP1 with MerTK” value in data set [5] is “did not inhibit binding of TULP1 with MerTK”.
